The target of data set [1] is T1, GST-WUS (WUSCHEL) (UniProt Q9SB92 1-292).
T1 sequence: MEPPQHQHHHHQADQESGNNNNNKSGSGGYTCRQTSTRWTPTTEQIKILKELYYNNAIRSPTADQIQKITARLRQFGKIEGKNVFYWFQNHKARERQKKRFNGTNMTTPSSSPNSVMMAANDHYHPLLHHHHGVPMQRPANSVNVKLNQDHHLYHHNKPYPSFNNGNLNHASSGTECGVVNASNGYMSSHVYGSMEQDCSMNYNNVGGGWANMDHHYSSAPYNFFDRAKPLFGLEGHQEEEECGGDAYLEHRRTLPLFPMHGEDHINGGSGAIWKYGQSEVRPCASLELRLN
The data set can be described thus: EMSA; Lightshift Chemiluminescent EMSA kit (Pierce), per manufacturer; buffer, salt, pH and temperature not stated. The note with it: protein: recombinant; chain copies: 2; label: 3' biotin on both strands (probe); blunt. Background: Mobility shift assays separate free from complexed probe on a gel.

For data set [2], the target named is T1, GST-WUS (WUSCHEL). The data set can be described thus: competition; unlabeled mutant competitor up to 800x excess vs labeled N1; Lightshift Chemiluminescent EMSA kit (Pierce), per manufacturer; buffer, salt, pH and temperature not stated. The note with it: protein: recombinant; chain copies: 2; blunt.

B1: GRP23 promoter probe wt (-748 to -709) (dsDNA)
DNA 1: CATATATCTTTAATACTGTTAATGATCTTTCTTCAAAAAC
DNA 2: GTTTTTGAAGAAAGATCATTAACAGTATTAAAGATATATG
For the molecule B1, the binding result with GST-WUS (WUSCHEL) [1] is given as “binds”.

B2: GRP23 promoter mutant (both TAAT to GGGG) (dsDNA)
DNA 1: CATATATCTTGGGGACTGTGGGGGATCTTTCTTCAAAAAC
DNA 2: GTTTTTGAAGAAAGATCCCCCACAGTCCCCAAGATATATG
For B2, the binding result in the data set with GST-WUS (WUSCHEL) [2] is reported as “no binding”.

These data come from publication PMC3784395, “Ectopic Expression of WUS in Hypocotyl Promotes Cell Division via GRP23 in Arabidopsis”.
